Holding throughout (format): cell-based
The target in test [1] is T1, RAR α (Homo sapiens, UniProt P10276).
T1 construct: plus VP16 fused to the indicated full length receptors; expressed in transfected cells; host or cells: CV-1
T1 sequence (P10276 1-462): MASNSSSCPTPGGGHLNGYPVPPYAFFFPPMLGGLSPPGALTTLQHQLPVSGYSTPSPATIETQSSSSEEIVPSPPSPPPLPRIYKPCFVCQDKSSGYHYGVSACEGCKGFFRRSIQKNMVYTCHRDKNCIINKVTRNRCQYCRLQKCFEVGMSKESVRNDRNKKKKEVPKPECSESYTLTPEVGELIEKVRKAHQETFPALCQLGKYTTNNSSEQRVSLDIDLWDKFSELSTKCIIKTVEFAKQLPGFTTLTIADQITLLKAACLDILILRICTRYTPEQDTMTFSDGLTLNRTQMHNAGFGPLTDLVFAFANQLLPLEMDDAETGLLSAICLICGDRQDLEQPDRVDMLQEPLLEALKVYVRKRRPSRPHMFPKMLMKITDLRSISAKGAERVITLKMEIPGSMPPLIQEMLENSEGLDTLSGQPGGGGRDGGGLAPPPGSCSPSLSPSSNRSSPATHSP
Nature of the test: Mammalian two-hybrid assay with VP16 full length receptor: RARα. Conditions: 1 μM 9-cis-retinoic acid. How it is done:
(§1) FIG. 6C1-3 illustrate the association of STAMP with assorted steroid/nuclear receptors, including glucocorticoid receptors (GRs), progesterone receptors (PRs), androgen receptors (ARs), estrogen receptors (ER α or β), PPARγ2 receptors, thyroid receptor beta (TR), and retinoid (α) receptors (RAR α or RXR α). Triplicate samples of CV-1 cells were transfected (as described for FIG. 6B) with GAL, or GAL fused to TIF2.4 or STAMP834C, plus VP16 fused to the indicated full length receptors and incubated with the appropriate steroid (1 μM Dex, 20 nM R5020, 1 nM R1881, 0.1 μM triiodothyronine, or 1 μM estradiol, roziglitazone, or 9-cis-retinoic acid). The average relative luciferase activities of 2-3 experiments±S.E.M. were then plotted. FIG. 6C1 illustrates the effects of STAMP association upon GR, PR and AR induced expression. FIG. 6C2 illustrates the effects of STAMP association upon ERα, ERβ and PPARγ2 induced expression. FIG. 6C3 illustrates the effects of STAMP association upon TR, RARα and RXRα induced expression.
(§2) These assays were conducted as described (He et al., 2002). […]

Test [2] has as its target T2, RXR α (Homo sapiens, UniProt P19793).
T2 construct: plus VP16 fused to the indicated full length receptors; expressed in transfected cells; host or cells: CV-1
T2 sequence (P19793 1-462): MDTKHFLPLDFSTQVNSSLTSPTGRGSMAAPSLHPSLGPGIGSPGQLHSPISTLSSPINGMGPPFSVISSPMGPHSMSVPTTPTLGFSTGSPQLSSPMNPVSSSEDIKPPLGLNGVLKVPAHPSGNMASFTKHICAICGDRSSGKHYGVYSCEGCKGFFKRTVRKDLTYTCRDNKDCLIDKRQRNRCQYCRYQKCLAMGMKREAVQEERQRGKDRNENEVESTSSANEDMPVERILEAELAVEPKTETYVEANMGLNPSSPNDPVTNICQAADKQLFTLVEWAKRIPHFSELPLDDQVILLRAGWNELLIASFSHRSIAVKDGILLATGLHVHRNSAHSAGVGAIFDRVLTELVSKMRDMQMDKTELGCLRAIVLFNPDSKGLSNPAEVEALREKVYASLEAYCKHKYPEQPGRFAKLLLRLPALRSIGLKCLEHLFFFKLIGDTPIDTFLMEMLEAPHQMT
Description: Mammalian two-hybrid assay with VP16 full length receptor: RXRα. Conditions: 1 μM 9-cis-retinoic acid. As to the method:
as §1, §2

Test [3] deals with T3, GR (Rattus norvegicus, UniProt P06536).
T3 construct: plus VP16 fused to the indicated full length receptors; expressed in transfected cells; host or cells: CV-1
T3 sequence (P06536 1-795): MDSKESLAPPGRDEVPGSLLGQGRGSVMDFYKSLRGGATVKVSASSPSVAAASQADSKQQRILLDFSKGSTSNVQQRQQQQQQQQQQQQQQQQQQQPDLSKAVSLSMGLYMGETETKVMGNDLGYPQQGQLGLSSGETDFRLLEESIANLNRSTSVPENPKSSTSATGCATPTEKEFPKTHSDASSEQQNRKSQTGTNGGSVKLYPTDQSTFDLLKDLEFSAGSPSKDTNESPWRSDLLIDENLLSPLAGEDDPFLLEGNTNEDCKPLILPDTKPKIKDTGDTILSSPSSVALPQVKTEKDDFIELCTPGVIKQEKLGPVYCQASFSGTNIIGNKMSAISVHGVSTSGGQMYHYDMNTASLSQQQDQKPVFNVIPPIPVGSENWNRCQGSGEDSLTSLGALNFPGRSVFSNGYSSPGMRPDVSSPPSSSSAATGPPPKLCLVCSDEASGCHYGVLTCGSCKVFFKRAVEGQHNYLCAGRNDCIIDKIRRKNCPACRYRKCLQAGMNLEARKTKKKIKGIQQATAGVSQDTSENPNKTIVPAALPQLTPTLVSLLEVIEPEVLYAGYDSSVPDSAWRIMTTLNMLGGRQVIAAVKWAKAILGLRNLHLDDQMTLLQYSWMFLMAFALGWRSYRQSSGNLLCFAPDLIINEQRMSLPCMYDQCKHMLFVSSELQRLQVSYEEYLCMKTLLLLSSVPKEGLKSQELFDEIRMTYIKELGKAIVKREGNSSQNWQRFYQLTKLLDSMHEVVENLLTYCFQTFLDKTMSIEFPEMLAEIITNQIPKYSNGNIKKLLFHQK
Description: Mammalian two-hybrid assay in CV-1 cells with VP16/GR. Conditions: VP16/GR ± 1 μM Dex. From the text:
FIGS. 6A and 6B illustrate the domains of STAMP that interact with TIF2.4 (FIG. 6A) and GR (FIG. 6B) in the mammalian two-hybrid assay. […] These CV-1 cells were also transfected with GAL fused to the indicated segments of STAMP along with the FRLuc reporter and Renilla control plasmids. After determining the relative luciferase activities as described in FIG. 2B and 2C, the average values±S.E.M. from 2-5 experiments were plotted. The average fold increase for VP16/TIF2.4 with GAL/STAMP(623-834) in FIG. 6A was 11.0±3.0 (SEM, n=5) above the VP16 control. The values in parentheses above the data bars in FIG. 6B indicate the fold increased interaction ±1 μM Dex.
These assays were conducted as described (He et al., 2002). In particular, the recommended procedure for the Mammalian Matchmaker two-hybrid assay kit (Clontech) was modified slightly by changing from a chloramphenicol acetyltransferase reporter to a Luciferase Reporter pFRLuc (Stratagene), which is under the control of five repeats of the upstream activating sequence for the binding of GAL4.

B1: STAMP834C: STAMP fragment amino acids 834-1277, receptor interaction domain (RID) (protein)
chain: GDHPETIMEEVKIKPPKQQQTTEIHSDKLSRFTTSAEKEAKLVYSNSSSGPTATLQKIPNTHLSSVTTSDLSPGPCHHSSLSQIPSAIPSMPHQPTILLNTVSASASPCLHPGAQNIPSPTGLPRCRSGSHTIGPFSSFQSAAHIYSQKLSRPSSAKAGSCYLNKHHSGIAKTQKEGEDASLYSKRYNQSMVTAELQRLAEKQAARQYSPSSHINLLTQQVTNLNLATGIINRSSASAPPTLRPIISPSGPTWSTQSDPQAPENHSSSPGSRSLQTGGFAWEGEVENNVYSQATGVVPQHKYHPTAGSYQLQFALQQLEQQKLQSRQLLDQSRARHQAIFGSQTLPNSNLWTMNNGAGCRISSATASGQKPTTLPQKVVPPPSSCASLVPKPPPNHEQVLRRATSQKASKGSSAEGQLNGLQSSLNPAASVPITSSTDPAHTKI
As to B1, the “interaction with retinoid (α) receptor” value in test [1] is “lack of interaction”. Moreover, the “interaction with RXR α” value in test [2] was “lack of interaction”. The “interaction with GR” value in test [3] was “largest agonist-induced changes”.

B2: 6-6CL1: STAMP fragment amino acids 623-834, coactivator interaction domain (CID) (protein)
chain: ENTPKENSMKVREWNNKGGHCCKLETQELEPKFNLMQILQDNGNLSKMQARIAFSAYLQHVQIRLMKDSGGQTFSASWAAKEDEQMELVVRFLKRASNNLQHSLRMVLPSRRLALLERRRILAHQLGDFIIVYNKETEQMAEKKSKKKVEEEEEDGVNMENFQEFIRQASEAELEEVLTFYTQKNKSASVFLGTHSKISKNNNNYSDSGAKG
With B2, the “interaction with GR” value in test [3] is “relative inactivity”.

(Values after US7867500B2, “Cofactor that modulates steroid receptor activities” (The United States of America as represented by the …, priority 2004, dated 2011).)
